# From PMC3088361 (Biochemistry, 2011)
# Molecular target: HIV-1 YU-2 gp120 wild type (HIV-1 (isolate YU-2), UniProt P35961 32-498)
# Test: SPR
binder,measurement,value
"CNLHWCQLRCKSLGLLGKCAGSFCACV (designed binder, C-terminal amide (-NH2); oxidized peptide) [[F5W]CD4F23]",binding result,binds
